B1: Protein PTHB1 (Homo sapiens), Q3SYG4 (parent)
chain: MSLFKARDWWSTILGDKEEFDQGCLCLANVDNSGNGQDKIIVGSFMGYLRIFSPHPAKTGDGAQAEDLLLEVDLRDPVLQVEVGKFVSGTEMLHLAVLHSRKLCVYSVSGTLGNVEHGNQCQMKLMYEHNLQRTACNMTYGSFGGVKGRDLICIQSMDGMLMVFEQESYAFGRFLPGFLLPGPLAYSSRTDSFLTVSSCQQVESYKYQVLAFATDADKRQETEQQKLGSGKRLVVDWTLNIGEQALDICIVSFNQSASSVFVLGERNFFCLKDNGQIRFMKKLDWSPSCFLPYCSVSEGTINTLIGNHNNMLHIYQDVTLKWATQLPHIPVAVRVGCLHDLKGVIVTLSDDGHLQCSYLGTDPSLFQAPNVQSRELNYDELDVEMKELQKIIKDVNKSQGVWPMTEREDDLNVSVVVSPNFDSVSQATDVEVGTDLVPSVTVKVTLQNRVILQKAKLSVYVQPPLELTCDQFTFEFMTPDLTRTVSFSVYLKRSYTPSELEGNAVVSYSRPTDRNPDGIPRVIQCKFRLPLKLICLPGQPSKTASHKITIDTNKSPVSLLSLFPGFASQSDDDQVNVMGFHFLGGARITVLASKTSQRYRIQSEQFEDLWLITNELILRLQEYFEKQGVKDFACSFSGSIPLQEYFELIDHHFELRINGEKLEELLSERAVQFRAIQRRLLARFKDKTPAPLQHLDTLLDGTYKQVIALADAVEENQGNLFQSFTRLKSATHLVILLIALWQKLSADQVAILEAAFLPLQEDTQELGWEETVDAAISHLLKTCLSKSSKEQALNLNSQLNIPKDTSQLKKHITLLCDRLSKGGRLCLSTDAAAPQTMVMPGGCTTIPESDLEERSVEQDSTELFTNHRHLTAETPRPEVSPLQGVSE
partner: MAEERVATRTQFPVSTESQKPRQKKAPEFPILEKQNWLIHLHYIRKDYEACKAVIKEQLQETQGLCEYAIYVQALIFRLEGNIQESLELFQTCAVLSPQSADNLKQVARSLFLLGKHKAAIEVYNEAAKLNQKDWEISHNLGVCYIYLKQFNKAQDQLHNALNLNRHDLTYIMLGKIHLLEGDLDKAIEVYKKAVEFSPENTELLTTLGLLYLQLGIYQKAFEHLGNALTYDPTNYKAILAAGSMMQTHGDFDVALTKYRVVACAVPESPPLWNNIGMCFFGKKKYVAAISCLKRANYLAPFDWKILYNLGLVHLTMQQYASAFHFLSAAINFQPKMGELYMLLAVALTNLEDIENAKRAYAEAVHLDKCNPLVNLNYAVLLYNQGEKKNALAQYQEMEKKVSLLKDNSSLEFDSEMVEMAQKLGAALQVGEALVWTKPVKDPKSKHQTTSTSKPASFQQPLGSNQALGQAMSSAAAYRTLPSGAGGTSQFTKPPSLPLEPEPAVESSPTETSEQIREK

Variants of: B1
Conditions: with bbs4_human BBS4, Q96RK4

Row | Variant | effect of a mutation on the interaction
1 | N576E | with no effect
2 | N576A | with no effect
3 | F582K | with no effect
4 | F582A | with no effect
5 | I550E | with no effect
6 | L536E | with no effect
7 | L536K | with no effect
8 | L536A | with no effect
9 | V577E | with no effect
10 | G565A | with no effect
11 | G565R | disrupting interaction strength
12 | G565K | with no effect
13 | G565E | with no effect
14 | I534K | with no effect
15 | I588E | with no effect
16 | T543E | with no effect
17 | T543A | with no effect
18 | P564S | disrupting interaction strength
19 | P564A | with no effect
20 | N553K | with no effect
21 | S568K | with no effect
22 | F563S | disrupting interaction strength

Row | Variant | effect of a mutation on the interaction
23 | F563K | with no effect
24 | V557K | with no effect
25 | G579E | with no effect
26 | G579K | with no effect
27 | H546K | with no effect
28 | H546E | with no effect
29 | H546A | with no effect
30 | G584E | disrupting interaction strength
31 | L591E | with no effect
32 | D572A | with no effect
33 | T549A | with no effect
34 | T549E | with no effect
35 | K542A | with no effect
36 | L583A | with no effect
37 | L583E | with no effect
38 | L583K | with no effect
39 | D551E | with no effect
40 | D551A | with no effect
41 | S555A | with no effect
42 | I548A | with no effect
43 | V590E | with no effect
44 | V590K | with no effect

Row | Variant | effect of a mutation on the interaction
45 | A544K | with no effect
46 | F566E | with no effect
47 | L559E | with no effect
48 | S570E | with no effect
49 | S570A | with no effect
50 | S541K | with no effect
51 | T589I | disrupting interaction strength
52 | S545A | with no effect
53 | S545K | with no effect
54 | S545E | with no effect
55 | M578A | with no effect
56 | A567K | with no effect
57 | F580E | with no effect
58 | F580A | with no effect
59 | F580K | with no effect
60 | T552A | with no effect
61 | L560E | with no effect
62 | L560A | with no effect
63 | L560K | with no effect
64 | C535K | with no effect
65 | G585E | with no effect
66 | G585K | with no effect

Row | Variant | effect of a mutation on the interaction
67 | R587E | with no effect
68 | R587T | disrupting interaction strength
69 | R587K | with no effect
70 | S561K | with no effect
71 | S561E | with no effect
72 | P537K | with no effect
73 | V575E | with no effect
74 | V575A | with no effect
75 | Q574K | with no effect
76 | Q574R | disrupting interaction strength
77 | Q574E | with no effect
78 | K554A | with no effect
79 | A592E | with no effect
80 | D571A | with no effect
81 | P556K | with no effect
82 | P556A | with no effect
83 | A586E | with no effect
84 | Q539A | with no effect
85 | Q539K | with no effect
86 | D573K | with no effect
87 | D573A | with no effect
88 | D573E | with no effect

Continued, values first:

Row | effect of a mutation on the interaction | Variant
89 | with no effect | N576K
90 | with no effect | L562A
91 | with no effect | L562K
92 | with no effect | L562E
93 | with no effect | S593A
94 | with no effect | S593E
95 | with no effect | F582E
96 | with no effect | I550K
97 | with no effect | I550A
98 | with no effect | V577A
99 | with no effect | V577K
100 | with no effect | G538A
101 | with no effect | G538K
102 | with no effect | G538E
103 | with no effect | I588K
104 | with no effect | I588A
105 | with no effect | T543K
106 | with no effect | H581E
107 | with no effect | H581K
108 | with no effect | H581A
109 | with no effect | P564E
110 | with no effect | P564K
111 | with no effect | N553E
112 | with no effect | N553A

Row | effect of a mutation on the interaction | Variant
113 | with no effect | S568A
114 | with no effect | S568E
115 | with no effect | F563E
116 | with no effect | F563A
117 | with no effect | V557E
118 | with no effect | V557A
119 | with no effect | G579A
120 | with no effect | G584K
121 | with no effect | G584A
122 | with no effect | L591K
123 | with no effect | L591A
124 | with no effect | K547E
125 | with no effect | K547A
126 | with no effect | D572E
127 | disrupting interaction strength | D572N
128 | with no effect | D572K
129 | with no effect | P540E
130 | with no effect | P540K
131 | with no effect | P540A
132 | with no effect | T549K
133 | with no effect | K542E
134 | with no effect | D551K
135 | with no effect | S555E
136 | with no effect | S555K

Row | effect of a mutation on the interaction | Variant
137 | with no effect | I548K
138 | with no effect | I548E
139 | with no effect | V590A
140 | with no effect | A544E
141 | with no effect | Q569E
142 | with no effect | Q569A
143 | disrupting interaction strength | Q569R
144 | with no effect | Q569K
145 | with no effect | F566A
146 | with no effect | F566K
147 | with no effect | L559A
148 | disrupting interaction strength | L559F
149 | with no effect | L559K
150 | with no effect | S570K
151 | with no effect | S541E
152 | with no effect | S541A
153 | with no effect | T589K
154 | disrupting interaction strength | T589A
155 | with no effect | T589E
156 | with no effect | M578E
157 | with no effect | M578K
158 | with no effect | A567E
159 | with no effect | T552E
160 | with no effect | T552K

Row | effect of a mutation on the interaction | Variant
161 | with no effect | C535E
162 | with no effect | C535A
163 | with no effect | G585A
164 | with no effect | R587A
165 | with no effect | S561A
166 | with no effect | P537E
167 | with no effect | P537A
168 | disrupting interaction strength | P537L
169 | with no effect | V575K
170 | with no effect | Q574A
171 | with no effect | K554E
172 | disrupting interaction strength | K554S
173 | with no effect | A592K
174 | with no effect | D571K
175 | with no effect | D571E
176 | with no effect | S558K
177 | with no effect | S558E
178 | with no effect | S558A
179 | with no effect | P556E
180 | with no effect | A586K
181 | with no effect | Q539E

— IntAct's records for PubMed 29039417
